Laboratory results: US20170051021A1, “PEPTIDE AGONISTS OF TOLL-LIKE RECEPTOR 5 LIGAND AND METHOD OF USE” (priority 2014, published 2017)

Legend:
NF-kB = NF-kB reporter system luciferase assay in transiently transfected CACO-2 cells; format: cell-based; details: CACO-2 cells transfected with mock vector delta NFkB-Luc
Experimental: All transfections were performed in triplicate in 24-well plates. Approximately 2×10^5 CACO-2 cells per well were seeded 24 h before transfection. Following the manufacturer's instructions, plasmids were transfected into cells using FUGENE transfection reagent (Promega, Medison, Wis.). Briefly, 0.8 μg of reporter plasmids carrying different NF-kB responsive elements (IL8-Luc, IGkB-Luc) plus 0.05 μg of pCMV-LacZ vector were diluted with Opti-MEM and then mixed with diluted liposomes. After 20 min of incubation at room temperature, the mixtures were added to each well. […] Each experiment was conducted a minimum of three times.

Wistar rats = experiment: In vivo protective role against lethal irradiation, survival of Wistar rats; parameters: species or system rat; details: 0.1 mg/kg s.c. one hour before single total dose of 9.6 Gy, FIG. 16
Experimental: One hour later, rats were irradiated for about 30 min with a single total dose of 9.6 Gy and survival was monitored daily (FIG. 16).

B1: VINCRO1 (protein)
chain: LTIQVGANDGETIDIDLKQINSQTLSSSGSSGSSGSSIDAALAQVDALRSDLGAVQNRFNSA
modifications: left off: small tags and cut ends
NF-kB
  luciferase activity with mock vector (specificity control): no luciferase activity
Wistar rats
  protection from lethal irradiation (survival): protect Wistar rats from lethal irradiation
